# Results: patent US11357830B2, “Nano-scale delivery device and uses thereof” (The Regents of the University of California, priority 2016, dated 2022)
# Tested on: Proteinase-K
# Assay: Proteinase-K protection test of Beta Lactamase (BLA) preparations, Nitrocefin Assay (FIGS. 3B, 3C)
# Assay type: biochemical
# Conditions: PK overnight, 0.1 mg/ml in 1x PBS, 37° C.; 250 μg/ml nitrocefin, absorbance 486 nm
# Description: To verify enzyme encapsulation and activity, three separate preparations were incubated with and without Proteinase-K (PK). […] In this example, the three preparations were exposed to Proteinase-K (Thermo Scientific Pierce Proteinase K) enzyme overnight at a concentration of 0.1 mg/ml in 1× phosphate buffered saline (PBS) solution at 37° C. Enzyme activity assay was done on the samples post incubation with PK using a Nitrocefin Assay (BLA hydrolysis of nitrocefin produces a shift of UV absorption inside the visible light spectrum from intact nitrocefin (˜380 nm) to degraded nitrocefin (˜500 nm) allowing visual detection of BLA activity on a macroscopic level). Each reaction was 100 μl in total and contained 250 μg/ml nitrocefin as substrate. Absorbance was measured at 486 nm.
substance,measurement,value
Beta Lactamase (BLA) [bare unencapsulated enzyme],BLA enzyme activity when exposed to Proteinase-K (PK),loses all activity
